What was measured:
IL-13RA2 huFc (human) [1] = test: SPR (Biacore T200), scFv_Fc forms on IL-13RA2 huFc, summary table
[2] = biological target: T1, IL-13RA2 endogenously expressed on U251 cells (human) (UniProt Q14627); test: flow cytometry on U251 cells, scFv_Fc form, 5-fold dilutions from 2,000 nM, FITC anti-human IgG
T1 sequence (looked up): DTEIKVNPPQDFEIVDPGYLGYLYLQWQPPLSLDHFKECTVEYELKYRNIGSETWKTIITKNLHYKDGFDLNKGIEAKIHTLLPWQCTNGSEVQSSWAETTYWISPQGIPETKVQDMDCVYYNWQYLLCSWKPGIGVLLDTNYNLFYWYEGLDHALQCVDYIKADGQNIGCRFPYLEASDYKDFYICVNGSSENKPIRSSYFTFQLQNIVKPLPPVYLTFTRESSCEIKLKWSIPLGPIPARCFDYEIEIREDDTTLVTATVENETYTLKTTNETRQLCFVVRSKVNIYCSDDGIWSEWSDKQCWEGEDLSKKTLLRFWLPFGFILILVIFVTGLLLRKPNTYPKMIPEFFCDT

IL-13RA2 huFc (human) [3] = test: SPR (Biacore T200), ligand IL13Ra2 on the chip, scFv_Fc as analyte at 6.25 to 100 nM, 1:1 binding fit, flow 30 ul/min

B1: 2D3 (scFv_Fc form) (Fc fusion, not shown: a dimerising Fc or GST)
scFv: EVQLLESGGGLVQPGGSLRLSCAASGFTFRRPAMTWVRQAPGKGLEWVSAITGSGGSTYYADSVKGRFTISRDNSKNTLYLQMNSLRAEDTAVYYCVKVRYGWGAGAFDYWGQGTLVTVSSGGGGSGGGGSGGGGSDIQMTQSPSTLSASVGDRVTITCRASQSISSWLAWYQQKPGKAPKLLIYDASSLESGVPSRFSGSGSGTEFTLTISSLQPDDFATYYCQQYDTYPPITFGQGTKVEIK
Binder B1 has a Kd (IL-13RA2 huFc (human) [1]) of 0.348 nM, a koff (IL-13RA2 huFc (human) [1]) of 0.000196 s⁻¹ and a kon (IL-13RA2 huFc (human) [1]) of 563000 M⁻¹ s⁻¹. For the same binder, the EC50 [2] was 0.33 nM, the Kd (IL-13RA2 huFc (human) [3]) was 0.348 nM and the koff (IL-13RA2 huFc (human) [3]) was 0.000196 s⁻¹. The kon (IL-13RA2 huFc (human) [3]) was 563000 M⁻¹ s⁻¹.
